Drawing on article PMC9144876 (Protein Science : A Publication of the Protein Society, 2022), this text covers Kd for one molecule.

The experiment addresses extracellular domain of SARS‐CoV‐2 spike protein (ECD) (SARS‐CoV‐2, UniProt P0DTC2 14-1213). Briefly: ELISA.

B1: h‐deface2 (designed binder)
chain: EFHGPSWCLTPADRGLCRANENRFYYNSVIGKCRPFKYSGCGGNENNFTSKDKCLHECKKG
For orientation: Kd means the constant that tells how readily two partners part at equilibrium. Read a low Kd as a tighter complex. The molecule B1 came in with a Kd of 54.4 nM.
